According to patent publication US20130209454A1 (CALIFORNIA INSTITUTE OF TECHNOLOGY, published 2013):

Legend:
Assay in all cases: cell-based or functional assay
[1] = target: HIV-1 Env of strain 211-9 (HIV-1)
[2] = target: HIV-1 Env of strain HIV-16845-2.22 (HIV-1)
[3] = target: HIV-1 Env of strain 6540.v4.cl (HIV-1)
[4] = target: HIV-1 Env of strain C2101.c01 (HIV-1)
[5] = target: HIV-1 Env of strain R1166.c01 (HIV-1)
[6] = target: HIV-1 Env of strain 3016.v5.c45 (HIV-1)
[7] = target: HIV-1 Env of strain SC422661.8 (HIV-1)
[8] = target: HIV-1 Env of strain X2131_C1_B5 (HIV-1)
[9] = target: HIV-1 Env of strain Q461.e2 (HIV-1)
[10] = target: HIV-1 Env of strain WEAU_d15_410_787 (HIV-1)
[11] = target: HIV-1 Env of strain Ce1176_A3 (HIV-1)
[12] = target: HIV-1 Env of strain P1981_C5_3 (HIV-1)
[13] = target: HIV-1 Env of strain 0815.v3.c3 (HIV-1)
[14] = target: HIV-1 Env of strain 620345.c01 (HIV-1)
[15] = target: HIV-1 Env of strain RHPA4259.7 (HIV-1)
[16] = target: HIV-1 Env of strain CNE53 (HIV-1)
[17] = target: HIV-1 Env of strain T257-31 (HIV-1)
[18] = target: HIV-1 Env of strain Ce2060_G9 (HIV-1)
[19] = target: HIV-1 Env of strain C1080.c03 (HIV-1)
[20] = target: HIV-1 Env of strain THRO4156.18 (HIV-1)
[21] = target: HIV-1 Env of strain AC10.0.29 (HIV-1)
[22] = target: HIV-1 Env of strain TRO.11 (HIV-1)
[23] = target: HIV-1 Env of strain CNE58 (HIV-1)
[24] = target: HIV-1 Env of strain REJO4541.67 (HIV-1)
[25] = target: HIV-1 Env of strain Du156.12 (HIV-1)
[26] = target: HIV-1 Env of strain Ce703010054_2A2 (HIV-1)
[27] = target: HIV-1 Env of strain 928-28 (HIV-1)
[28] = target: HIV-1 Env of strain PVO.4 (HIV-1)
[29] = target: HIV-1 Env of strain TROJO4551.58 (HIV-1)
[30] = target: HIV-1 Env of strain 231965.c01 (HIV-1)
[31] = target: HIV-1 Env of strain 6535.3 (HIV-1)
[32] = target: HIV-1 Env of strain 231966.c02 (HIV-1)
[33] = target: HIV-1 Env of strain CNE21 (HIV-1)
[34] = target: HIV-1 Env of strain 6545.v4.cl (HIV-1)
[35] = target: HIV-1 Env of strain 6480.v4.c25 (HIV-1)
[36] = target: HIV-1 Env of strain 3817.v2.c59 (HIV-1)
[37] = target: HIV-1 Env of strain CAP210.2.00.E8 (HIV-1)
[38] = target: HIV-1 Env of strain T251-18 (HIV-1)
[39] = target: HIV-1 Env of strain CAP45.2.00.G3 (HIV-1)
[40] = target: HIV-1 Env of strain 703357.C02 (HIV-1)
[41] = target: HIV-1 Env of strain X1193_c1 (HIV-1)
[42] = target: HIV-1 Env of strain CNE20 (HIV-1)
[43] = target: HIV-1 Env of strain ZM249M.PL1 (HIV-1)

B1: NIH45-46 IgG (antibody, V domains shown)
VH: QVRLSQSGGQMKKPGESMRLSCRASGYEFLNCPINWIRLAPGRRPEWMGWLKPRGGAVNYARKFQGRVTMTRDVYSDTAFLELRSLTSDDTAVYFCTRGKYCTARDYYNWDFEHWGRGAPVTVSS
VL: EIVLTQSPATLSLSPGETAIISCRTSQSGSLAWYQQRPGQAPRLVIYSGSTRAAGIPDRFSGSRWGADYNLSISNLESGDFGVYYCQQYEFFGQGTKVQVDI
Which results are given for B1?
neutralization IC50 [1]: > 50 µg/mL; neutralization IC50 [2]: 5 µg/mL; neutralization IC50 [3]: > 50 µg/mL; neutralization IC50 [4]: 4.24 µg/mL; neutralization IC50 [5]: 0.31 µg/mL; neutralization IC50 [6]: > 50 µg/mL; neutralization IC50 [7]: 0.06 µg/mL; neutralization IC50 [8]: 0.23 µg/mL; neutralization IC50 [9]: 0.076 µg/mL; neutralization IC50 [10]: 0.005 µg/mL; neutralization IC50 [11]: 0.93 µg/mL; neutralization IC50 [12]: 0.08 µg/mL; neutralization IC50 [13]: 0.014 µg/mL; neutralization IC50 [14]: > 50 µg/mL; neutralization IC50 [15]: 0.017 µg/mL; neutralization IC50 [16]: 0.008 µg/mL; neutralization IC50 [17]: 0.49 µg/mL; neutralization IC50 [18]: 0.058 µg/mL; neutralization IC50 [19]: 2.48 µg/mL; neutralization IC50 [20]: 1.91 µg/mL; neutralization IC50 [21]: 0.56 µg/mL; neutralization IC50 [22]: 1.61 µg/mL; neutralization IC50 [23]: 0.43 µg/mL; neutralization IC50 [24]: 0.014 µg/mL; neutralization IC50 [25]: 0.02 µg/mL; neutralization IC50 [26]: 0.159 µg/mL; neutralization IC50 [27]: 0.23 µg/mL; neutralization IC50 [28]: 0.12 µg/mL; neutralization IC50 [29]: 0.04 µg/mL; neutralization IC50 [30]: 0.051 µg/mL; neutralization IC50 [31]: 0.23 µg/mL; neutralization IC50 [32]: 1.64 µg/mL; neutralization IC50 [33]: 6.01 µg/mL; neutralization IC50 [34]: > 50 µg/mL; neutralization IC50 [35]: 0.032 µg/mL; neutralization IC50 [36]: > 50 µg/mL; neutralization IC50 [37]: > 50 µg/mL; neutralization IC50 [38]: 1.35 µg/mL; neutralization IC50 [39]: > 50 µg/mL; neutralization IC50 [40]: 19.2 µg/mL; neutralization IC50 [41]: 0.021 µg/mL; neutralization IC50 [42]: 7.83 µg/mL; neutralization IC50 [43]: 0.017 µg/mL
